assay: yeast display, Sf9 membrane polyspecificity reagent, FACS + sequencing; frameworks hold sequencing errors
How it was run: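 Galactose-induced (36–48 hours) yeast carrying a synthetic nanobody display library were exposed to 10% biotinylated, detergent-solubilized Sf9 membrane reagent at 4 °C for 1 hour. FACS followed streptavidin microbead enrichment, using low and high (top ~1%) gates for expression (anti-HA) and reagent binding (streptavidin). Colony PCR, MiSeq 2 × 250 sequencing and CDR-length filtering followed. Labels for polyreactivity reflect the gate of origin.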

| Sequence | polyreactivity (PSR sort gate) |
| --- | --- |
| QVQLVESGGGLVQAGGSLRLICAASGSTFGLNTMGWYRQAPGKDRELVAGITWSGGTTYYADSVKGRFTISRDNAKNTVYLQMNSLKPEDTAVYYCAAAVCDHYWYSRAYYYWGQGTQVTLSS | high polyreactivity |
| QVQLVESGGGLVQAGGSLRLICAASGSTFKWYAMGWYRQAPGKERELVAAISSSGGTTYYADSVKGRFTISRDNAKNTVYLQMNSLKPEDTAVYYCAKPYLYSGYGYWGQGTQVTVSS | high polyreactivity |
| QVQLVESGGGLVQAGGSLRLICAASGSTFLGYAMGWYRQAPGKERELVAAITYSAGSTYYADSVKGRFTISRDNAKNTVYLQMNSLKPEDTAVYYCAKRYSGYDHWGQGTQVTVSS | low polyreactivity |
| QVQLVESGGGLVQAGGSLRLICAASGSTFNGYVMGWYRKAPGKERELVAAISRSGGSTYYADSVKGRFTNSRDNAKNTVYLQMNSLKPEDTAVYDCAAAPPLAGLGGYYWGQGTQVTVSS | high polyreactivity |
| QVQLVESGGGLVQAGGSLRLICAASGSTFNIKAMGWYRQAPGKERELVAAISSRGGSTYYADSVKGRFTISRDNAKNTVYLQMNSLKPEDTAVYYCALAAGIPQRRYYYWGQGTQVTVSS | high polyreactivity |
| QVQLVESGGGLVQAGGSLRLICAASGSTFNYNAMGSSRQAPGKERELVAAISQTTSRTYYADSVKGRFTISRDNAKNTVYLQMNSLKPEDTAVYYCATKRWTRDRQRPRTQYYLFYYWGQGTQVTVSS | high polyreactivity |
| QVQLVESGGGLVQAGGSLRLICAASGSTFNYNAMGWYRQAPGKERELVAAISSSGGSTYYADSVKGRFTISRDNAKYTVYLQMNSLKREDTAVYYCAASGGYGQYNYWGQGTQVTVSS | low polyreactivity |
| QVQLVESGGGLVQAGGSLRLICAASGSTFPYYDMGWYRQAPGKETELVAAISWSGDSTYYADSVKGRFTISRDNAKNTVYLQMNSLKPEDTAVYYCAAYSDYWSYLSTDDYWGQGTQVTVSS | low polyreactivity |
| QVQLVESGGGLVQAGGSLRLICAASGSTFSYNAMGWYRQAPGKEREFVAAITSSGSSTYYADSVKGRFTISRYNAKNTVYLQMNSLKPEDTAVYYCNAEVLFVAGQVQRNSGDYWGQGTQVTVSS | low polyreactivity |
| QVQLVESGGGLVQAGGSLRLICAASGSTFTRYAMGWYRQAPGKERELVAAITSSGSRTYYADSVKGRFTISRDNAQNTVYLQMNSLKPEDTAVYYFAALGDTRYVGMDHWGQGTQVTVSS | high polyreactivity |
| QVQLVESGGGLVQAGGSLRLICAASGSTFYFYAMGWYRQAPGKERELVAVISSGGSTYYADSVKGRFTISRDNAKNTVYLQMNSLKPEDTAVYYCAAYYYYTLYYRYDYWGQGTQVNVSS | low polyreactivity |
| QVQLVESGGGLVQAGGSLRLICAASGSTIGTNAMGWYRQAPGKERELVAAISRSGGRTYYADSVKGRFTISRDNAKNTVYLQMNSLKPEDTAVYYCAKAGLYTEYDYWGQGTQVTVSS | high polyreactivity |
| QVQLVESGGGLVQAGGSLRLICAASGSTLFYNAMGWYRQAPGKERELVAAISSGVRTNYADSVKGRFTISRDNAKITVYLQMNSLKPEDTALYYCAAATYNQDYSYDYWGQGTQVTVSS | low polyreactivity |
| QVQLVESGGGLVQAGGSLRLICAASGSTLNSYVMGWSRQAPGKERDMVATIRSGSSTNYADSVKGRFTISRDNAKNTVYFQMNSLIPEDTAVYSCAADAYSLCYDSWGQGTQVTVSS | low polyreactivity |
| QVQLVESGGGLVQAGGSLRLICAASGSTYRYYAMGWSRQAPGKERELVAGITGSGGSTYYADSVKGRFTISRDNAKNTVYLQMNSLNPEDTAVYDCATKLRRWRFYAAYDYWGQGTQVTVSS | high polyreactivity |
| QVQLVESGGGLVQAGGSLRLICAASGTFDHYAMGWDRQAPGKERELVAAISWSGGSTYYADSVKGRFTISRDNAKNTVYLQMNSLKPEDTAVYYCNAETDGYFESNDFDYWGQGTQVTVSS | high polyreactivity |

| Sequence | polyreactivity (PSR sort gate) |
| --- | --- |
| QVQLVESGGGLVQAGGSLRLICAASGVIFLRYAMGWYRQAPGKERELVAAISSSGDITYYADSVKGRFTISRDNAKNTVYLQMYSLKPEDTAVYYCAATVGLWEYGYWGQGTQVTVSS | low polyreactivity |
| QVQLVESGGGLVQAGGSLRLICAASGVSNAKGWYRQAPGKERELVAAISRSGGSTYYADSVKGRFTISRDNAKNTVYIQMNSLKPEDTAVYYCAAGYRTRGLYSRLDWGQGTQVTVSS | high polyreactivity |
| QVQLVESGGGLVQAGGSLRLICAASGYIFTYNAMGWYRQAPGKERELVAAISSGDGRTYYADSVKGRFTISRDNAKNTVYLQMNSLTPEDTAVYYCNATRVVYRQAYLYGYDYWGQGTQVTVSS | low polyreactivity |
| QVQLVESGGGLVQAGGSLRLICAASGYIFVRNAMGWYRQAPGKEREFVATISRRGGTTYYADSVKGRFTISRDNAKNTVYLQMNSLKPEDTAVYYCAARNWPSRGYKYWGQGTQVTVSS | high polyreactivity |
| QVQLVESGGGLVQAGGSLRLICAASGYTFALYAIGWYRQATGKERELVAAITDSDGSTYADSVKGRFTISRDNAKNTFYLQMNSLKQEDTAVYYCAARDPHLQGYSYLSYLTMDYWGQGTQVTVSS | low polyreactivity |
| QVQLVESGGGLVQAGGSLRLICAASVSIFKAYAMGWYRQAPGKEMELVARIRYRGGSTYYADSVKGRFTISRDNAKNTVYLQMNSLKPEDTAVYYCAARFSPYHTDRGDYWGQGTQVTVSS | high polyreactivity |
| QVQLVESGGGLVQAGGSLRLICAATGSIFPVYAMVWSRQAPGKEREFVARIRFSGGRTYYADSVKGRYTISRDNAMNTVYLQMNSLKPEDTAVYYCAKDFRGYRWSYYWGQGTQVTVSS | high polyreactivity |
| QVQLVESGGGLVQAGGSLRLICAATGSTFVYNAMGWYRQAPGKEREFVAVINWSGGRTYADSVKGRFTISRDNAKNTVYLQMNSLKPEDTAVYYCNGERRTYRVALQYRRYDYWGQGTQVTVSS | high polyreactivity |
| QVQLVESGGGLVQAGGSLRLICAAYGITIGVYAMGWYRQAPVKERELVAAISSSGDTTYYADSVKGRFTISRDNAKNTVYLQKNSLKPEDTAVYYSAAYSHHQFSRSEYYYWGQGTQVTVSS | low polyreactivity |
| QVQLVESGGGLVQAGGSLRLICADSGRIFGWYAMGWYRQAPGKERELVAAITSGSRTSYADSVKGRFTISRDNAKNTVYLQMNSLKPEDTAVYYCNRVSHLDYYWGQGTQVTVSS | high polyreactivity |
| QVQLVESGGGLVQAGGSLRLICADSRRTFVSYTMGWYRQAPAKERELVAAISSGGSTTYADSVKGRFTISRDNAKNTVYLQMNSLKPEDTAVYYGNARYGWSYWSKYDYWGQGTQVNVSS | high polyreactivity |
| QVQLVESGGGLVQAGGSLRLICDASGIIFFPYAMGWYRQAPGKEREFVAAIRATGDNTYYADSVKGRFTISRDNAKNTVYLQMNSLKPEDTAVYYCAADRGTYQVDYWGQGTQVTVSS | low polyreactivity |
| QVQLVESGGGLVQAGGSLRLICDASGRILTGNAMGWYRQAPGKERELVAAISYNGGRTYYADSVKGRFTISRDNAKNTVYLQMNSLKPEDTAVYYCNVVRRQLQTSHPYGYWGQGTQVTVSS | low polyreactivity |
| QVQLVESGGGLVQAGGSLRLICDASGSTFAYNDMGWYRQAPGKERELVAAITYSGGSTYYADSVKGRFTISRDNAKNTVSLQMNSLKPEDTAVYYCNAYTGYPYEYWGQGTQVTVSS | low polyreactivity |
| QVQLVESGGGLVQAGGSLRLICDASGSTFGYYAIGGYRQAPGKERELVAVINKSGGRTYYADSVKGRFTISRDNAKNTVYLQMNSLKPEDTAVYYCATRVTSTRHDYWGQGTQVTVSS | high polyreactivity |
| QVQLVESGGGLVQAGGSLRLICDDSGSILSYNTMGWYRQAPGKEREFVAGITYSGSRTYYADSVKGRFTISRDNAKNTVSLQMNSLKPVDTAVYYCAKRNYYRMYWGQGTQVTVSS | high polyreactivity |
